Experimental findings from article PMC6450724 (Molecular cell, 2019) are described below.

In data set [1] the target is DnaC (with DnaB^KAEA and M13 ssDNA) (Escherichia coli, UniProt P0AEF0). Put plainly: coupled pyruvate kinase/lactate dehydrogenase ATPase assay, A340. The data set is classed as biochemical. As to conditions: DnaB K236A/E262A and M13 ssDNA present; 10 mM MgCl2, pH 7.5, 37 °C.
Data set [2] addresses E. coli DnaB replicative helicase, wild type (E. coli) (UniProt P0ACB0). Put plainly: cryo-EM structure.
Data set [3] has the same target. As to the kind of experiment: cryo-EM structure. The source holds these as a separate data set.
Data set [4] concerns the molecule itself. As to the kind of experiment: cryo-EM structure.

Like-named read-outs stand apart in the source and are kept apart here.

Turning to `Nc1ncnc2c1ncn2[C@@H]1O[C@H](COP(=O)(O)OP(=O)(O)OP(=O)(O)O)[C@@H](O)[C@H]1O` [ATP], the Km result in data set [1] is listed as “DnaC follows apparent Michaelis-Menten behavior”. In general, stoichiometry N refers to a count of units in the complex or per binding partner. As for “E. coli DnaB replicative helicase, wild type (from UniProt P0ACB0 1-471) (enzyme)”, the stoichiometry N in data set [2] and in data set [3] was 6 each time.

B1: E. coli DnaC helicase loader, wild type (enzyme, UniProt P0AEF0 1-245, looked up)
chain: MKNVGDLMQRLQKMMPAHIKPAFKTGEELLAWQKEQGAIRSAALERENRAMKMQRTFNRSGIRPLHQNCSFENYRVECEGQMNALSKARQYVEEFDGNIASFIFSGKPGTGKNHLAAAICNELLLRGKSVLIITVADIMSAMKDTFRNSGTSEEQLLNDLSNVDLLVIDEIGVQTESKYEKVIINQIVDRRSSSKRPTGMLTNSNMEEMTKLLGERVMDRMRLGNSLWVIFNWDSYRSRVTGKEY
For the molecule B1, the “stoichiometry N” value in data set [4] was determined as 6.
